{"source": "patent US20240199731A1", "about": "(published 2024)", "binders": {"B1": {"name": "Clone 1.17 (VHH)", "VHH": "EVQLVESGGGLVQPGGSLRLSCAASGFTFSSYSMYWVRQAPGKGLEWVAEIKPTGSVQYYVSDVKGRFTISRDNAKNSLYLQMNSLRAEDTAVYYCAKGEILPLYFDYWGQGTLVTVSS", "notes": "Human single VH domain; also called VH 1.17.1"}}, "target": "T1, Recombinant human IL-17A (Peprotech, cat #AF-200-17) (human, UniProt Q16552 24-155)", "T1 construct": "Bought protein", "T1 sequence (Q16552 24-155)": "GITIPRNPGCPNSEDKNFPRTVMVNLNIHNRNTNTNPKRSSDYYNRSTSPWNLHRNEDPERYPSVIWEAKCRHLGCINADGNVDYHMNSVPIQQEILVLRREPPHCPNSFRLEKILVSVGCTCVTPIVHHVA", "assay": "SPR (BIAcore T200), IL-17A coupled to CM5 chip, VH as analyte, single-cycle kinetics", "protocol": "VH binding kinetics were then determined from the (blank subtracted) sensorgram traces using 1:1 binding models and BIAevaluation software.", "data": [{"binder": "B1", "values": [{"measurement": "Kd", "value": 1.5, "unit": "nM"}]}]}
